Data as given in US20260078196A1 (TJ BIOPHARMA SHANGHAI, published 2026).
Like-named read-outs stand apart in the source and are kept apart here.

Experiments:
human CLDN6 on cells [1] = target: T1, human CLDN6 on cells (human, UniProt P56747 1-220); experiment: flow cytometry (GMFI) on OV90 cells
T1 construct: CHO-K1 cells stably expressing human CLDN6, and OVCAR3 / OV90 cells with endogenous CLDN6; also called CHO-K1-CLDN6; CLDN6 on OVCAR3 and OV90 cells
T1 sequence: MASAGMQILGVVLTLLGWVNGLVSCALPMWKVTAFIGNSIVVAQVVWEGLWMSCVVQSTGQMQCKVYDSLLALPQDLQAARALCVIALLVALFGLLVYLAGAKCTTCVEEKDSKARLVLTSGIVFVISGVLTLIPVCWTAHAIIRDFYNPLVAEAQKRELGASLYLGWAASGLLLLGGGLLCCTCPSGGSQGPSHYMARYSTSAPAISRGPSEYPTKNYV

human CLDN6 on cells [2] = target: T1, human CLDN6 on cells; experiment: flow cytometry (GMFI) on OVCAR3 cells
human CLDN6 on cells [3] = target: T1, human CLDN6 on cells; experiment: flow cytometry (GMFI) on CHO-K1-CLDN6 cells
ROR1 on cells [4] = target: T2, ROR1 on cells (UniProt Q01973 30-937); experiment: flow cytometry (gMFI) on A549 cells
T2 construct: whole, on cells; also called ROR1 endogenous expressed tumor cell A549; ROR1-positive tumor cell lines

ROR1 antigen [5] = target: T3, ROR1 antigen (UniProt Q01973 30-406, limits assumed); experiment: SPR, binding to ROR1
T3 construct: Soluble antigen of the Octet binning and of the SPR assay

ROR1 antigen [6] = target: T3, ROR1 antigen; experiment: SPR on ROR1
ROR1 on cells [7] = target: T2, ROR1 on cells; experiment: flow cytometry (gMFI) on A549 cells; remark: listed apart in the source
ROR1 on cells [8] = target: T2, ROR1 on cells; experiment: flow cytometry (gMFI) on MDA-MB-231 cells
ROR1 antigen [9] = target: T3, ROR1 antigen; experiment: SPR on ROR1; remark: listed apart in the source
ROR1 antigen [10] = target: T3, ROR1 antigen; experiment: SPR on ROR1; remark: listed apart in the source
huMUC16, AA13789-14451 = target: T4, huMUC16, AA13789-14451; experiment: binding ELISA on huMUC16 AA13789-14451
T4 construct: also called MUC16 Antigen (human MUC16 AA13789-14451)
T4 chain: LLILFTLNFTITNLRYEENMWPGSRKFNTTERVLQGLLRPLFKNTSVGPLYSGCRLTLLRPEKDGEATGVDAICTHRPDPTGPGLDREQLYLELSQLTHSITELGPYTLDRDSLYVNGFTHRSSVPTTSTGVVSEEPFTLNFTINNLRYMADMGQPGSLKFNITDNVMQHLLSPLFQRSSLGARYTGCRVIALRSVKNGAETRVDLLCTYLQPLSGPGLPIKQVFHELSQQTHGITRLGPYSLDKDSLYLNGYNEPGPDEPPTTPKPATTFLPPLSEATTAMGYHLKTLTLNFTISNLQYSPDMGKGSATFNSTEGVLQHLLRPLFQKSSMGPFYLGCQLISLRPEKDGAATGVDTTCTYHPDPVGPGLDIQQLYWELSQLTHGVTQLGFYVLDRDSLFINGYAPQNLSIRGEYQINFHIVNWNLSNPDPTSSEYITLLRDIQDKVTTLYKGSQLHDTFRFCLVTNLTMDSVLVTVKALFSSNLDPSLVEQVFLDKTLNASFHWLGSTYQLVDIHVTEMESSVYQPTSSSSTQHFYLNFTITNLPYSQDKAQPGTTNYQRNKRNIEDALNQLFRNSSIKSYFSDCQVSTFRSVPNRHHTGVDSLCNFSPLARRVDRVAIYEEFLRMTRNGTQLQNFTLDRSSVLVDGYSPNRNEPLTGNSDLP

human MUC16 on cells [11] = target: T5, human MUC16 on cells (human, UniProt Q8WXI7 1-14507); experiment: flow cytometry (GMFI) on OVCAR3 cells, nM is the unit of the x axis Log10[Ab] (nM)
T5 construct: whole, on cells; also called huMUC16; MUC16 on OVCAR3 and SNU216 cells

human MUC16 on cells [12] = target: T5, human MUC16 on cells; experiment: flow cytometry (GMFI) on OVCAR3 cells; same value as in FIG. 11A, nM is the unit of the x axis
huMUC16, AA14198-14507 = target: T6, huMUC16, AA14198-14507; experiment: binding ELISA on huMUC16 AA14198-14507
T6 chain: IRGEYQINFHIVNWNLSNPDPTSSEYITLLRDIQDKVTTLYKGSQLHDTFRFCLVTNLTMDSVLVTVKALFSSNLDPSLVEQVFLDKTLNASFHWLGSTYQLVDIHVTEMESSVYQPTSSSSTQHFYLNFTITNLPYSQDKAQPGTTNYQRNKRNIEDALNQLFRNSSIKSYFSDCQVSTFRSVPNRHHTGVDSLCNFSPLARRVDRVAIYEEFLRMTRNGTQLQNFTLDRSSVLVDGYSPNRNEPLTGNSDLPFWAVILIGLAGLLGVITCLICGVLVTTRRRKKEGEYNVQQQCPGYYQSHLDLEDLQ

human MUC16 on cells [13] = target: T5, human MUC16 on cells; experiment: flow cytometry (MFI GeoMean) on OVCAR3 cells, nM is the unit of the x axis Log10[Ab] (nM)
human MUC16 on cells [14] = target: T5, human MUC16 on cells; experiment: flow cytometry (MFI GeoMean) on SNU216 cells, nM is the unit of the x axis Log10[Ab] (nM)
[15] = target: T7, HEK293-MUC16 (13810-14507) (human, UniProt Q8WXI7 13810-14507); experiment: flow cytometry (MFI GeoMean) on HEK293-MUC16 (13810-14507) cells, nM is the unit of the x axis Log10[Ab] (nM)
T7 construct: range 13810-14507; also called MUC16 overexpressed HEK293 cells
T7 sequence: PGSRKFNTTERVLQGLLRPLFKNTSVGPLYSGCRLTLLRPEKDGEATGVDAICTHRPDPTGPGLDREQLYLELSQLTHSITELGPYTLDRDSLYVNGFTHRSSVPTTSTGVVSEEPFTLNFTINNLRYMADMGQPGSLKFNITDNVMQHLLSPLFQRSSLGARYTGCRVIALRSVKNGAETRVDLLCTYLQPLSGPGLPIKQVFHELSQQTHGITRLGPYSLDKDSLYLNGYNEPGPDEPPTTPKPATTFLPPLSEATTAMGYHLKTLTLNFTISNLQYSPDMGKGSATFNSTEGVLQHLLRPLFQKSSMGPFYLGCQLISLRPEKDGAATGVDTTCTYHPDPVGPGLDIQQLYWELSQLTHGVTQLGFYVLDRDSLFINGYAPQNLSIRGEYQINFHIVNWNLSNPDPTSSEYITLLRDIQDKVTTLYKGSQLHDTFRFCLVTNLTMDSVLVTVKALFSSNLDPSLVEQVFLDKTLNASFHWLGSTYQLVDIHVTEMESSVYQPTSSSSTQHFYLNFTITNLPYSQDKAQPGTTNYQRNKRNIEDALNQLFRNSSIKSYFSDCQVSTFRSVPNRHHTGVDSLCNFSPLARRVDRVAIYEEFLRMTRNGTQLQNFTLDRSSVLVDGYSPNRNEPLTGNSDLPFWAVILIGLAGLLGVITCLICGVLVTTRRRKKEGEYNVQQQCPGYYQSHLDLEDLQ

B1: parental CLDN6-1 antibody (antibody, V domains shown)
VH: QVQLQESGPGLVKPSETLSLTCTVSGYSITSGYYWNWIRQPPGKGLEWMGYISYSGSNNYNPSLKNRVTISRDTSKNQFSLKLSSVTAADTAVYYCARGGYYFDYWGQGTLVTVSS
VL: DIVMTQSPDSLAVSLGERATINCKSSQSLLNTNNQKNYLAWYQQKPGQPPKLLIYFASTRESGVPDRFSGSGSGTDFTLTISSLQAEDVAVYFCQQHYNAPRTFGGGTKVEIK
Question: For B1, which EC50 (human CLDN6 on cells [1]) is on record?
Answer: 1.2 nM

Question: And the EC50 (human CLDN6 on cells [2])?
Answer: 5.1 nM

Question: And the EC50 (human CLDN6 on cells [3])?
Answer: 0.452 nM

B2: humanized 8F2 anti-ROR1 mAb (antibody, V domains shown)
VH: QVQLVQSGAEVKKPGASVKVSCKASGYTFTTYVMHWVRQAPGQGLEWMGYINPYNGGIRYNEKFKGRVTMTRDTSTSTVYMELSSLRSEDTAVYYCARRERGVYYGMDEWGQGTLVTVSS
VL: DIVMTQTPLSLSVTPGQPASISCKSSQSLLHSNGKTYLNWYLQKPGQSPQLLIYLVSKLESGVPDRFSGSGSGTDFTLKISRVEAEDVGVYYCLQATYFPYTFGQGTKLEIK
notes: also called h8F2
Question: Does B2 bind (ROR1 on cells [4])?
Answer: binds

B3: 4B-BiR1(Humanized) or 4B-hBiR1 (bispecific antibody, human IgG1, kappa)
heavy: not shown
chain: DIVMTQTPLSLSVTPGQPASISCKSSQSLLHSNGKTYLNWYLQKPGQSPQLLIYLVSKLESGVPDRFSGSGSGTDFTLKISRVEAEDVGVYYCLQATYFPYTFGQGTKLEIKGGGGSGGGGSGGGGSQVQLVQSGAEVKKPGASVKVSCKASGYTFTTYVMHWVRQAPGQGLEWMGYINPYNGGIRYNEKFKGRVTMTRDTSTSTVYMELSSLRSEDTAVYYCARRERGVYYGMDEWGQGTLVTVSSAAEPKSSDKTHTCPPCPAPELLGGPSVFLFPPKPKDTLMISRTPEVTCVVVDVSHEDPEVKFNWYVDGVEVHNAKTKPREEQYNSTYRVVSVLTVLHQDWLNGKEYKCKVSNKALPAPIEKTISKAKGQPREPQVCTLPPSREEMTKNQVSLSCAVKGFYPSDIAVEWESNGQPENNYKTTPPVLDSDGSFFLVSKLTVDKSRWQQGNVFSCSVMHEALHNHYTQKSLSLSPGKGGGGSGGGGSGGGGSQVQLQESGGGLVQPGGSLRLSCAASGYTYSSNCMGWFRQAPGKGLEGVAVICTGGGSPSYADSVKGRFTISRDNAKNTLYLQMNSLRAEDTAVYYCAADLLRAGTPLSSYEFNYWGQGTLVTVSS
light: DIQMTQSPSSLSASVGDRVTITCRASQDIYSYLSWFQQKPGKAPKTLIYRANRLVDAVPSRFSGSGSGQDYTLTISSLQPEDFATYYCLQYDEFPYTFGQGTKLEIKRTVAAPSVFIFPPSDEQLKSGTASVVCLLNNFYPREAKVQWKVDNALQSGNSQESVTEQDSKDSTYSLSSTLTLSKADYEKHKVYACEVTHQGLSSPVTKSFNRGEC
notes: Humanized bi-paratopic ROR1 x 4-1BB antibody: h3C5 IgG half with VHH plus h8F2 scFv-Fc-VHH; also called 4-hiBiR1
Question: What does the source list for B3?
Answer: Kd (ROR1 antigen [5]): 12.1 nM; koff (ROR1 antigen [6]): 0.00114 s⁻¹; kon (ROR1 antigen [6]): 93600 M⁻¹ s⁻¹; EC50 (read off the curve) (ROR1 on cells [7]): ~0.1 nM; EC50 (read off the curve) (ROR1 on cells [8]): ~0.06 nM

B4: 4B-3C5 (humanized) or 4B-h3C5 (bispecific antibody, human IgG1, kappa)
heavy: not shown
light: B3 light
notes: Humanized ROR1 x 4-1BB BsAb; also called humanized 3C5 IgG x 4-1BB VHH
Question: For B4, which Kd (ROR1 antigen [5]) is on record?
Answer: 79.3 nM

Question: And the koff (ROR1 antigen [9])?
Answer: 0.00821 s⁻¹

Question: What about the kon (ROR1 antigen [9]) of the same binder?
Answer: 104000 M⁻¹ s⁻¹

Question: What about the “EC50 (read off the curve)” value (ROR1 on cells [7]) of the same binder?
Answer: ~0.03 nM

Question: And the “EC50 (read off the curve)” value (ROR1 on cells [8])?
Answer: ~0.03 nM

B5: 4B-8F2 (humanized) or 4B-h8F2 (bispecific antibody, human IgG1, kappa)
heavy: not shown
light: DIVMTQTPLSLSVTPGQPASISCKSSQSLLHSNGKTYLNWYLQKPGQSPQLLIYLVSKLESGVPDRFSGSGSGTDFTLKISRVEAEDVGVYYCLQATYFPYTFGQGTKLEIKRTVAAPSVFIFPPSDEQLKSGTASVVCLLNNFYPREAKVQWKVDNALQSGNSQESVTEQDSKDSTYSLSSTLTLSKADYEKHKVYACEVTHQGLSSPVTKSFNRGEC
notes: Humanized ROR1 x 4-1BB BsAb
Question: Which Kd (ROR1 antigen [5]) does the source give for B5 here?
Answer: 237 nM

Question: What about the koff (ROR1 antigen [10]) of the same binder?
Answer: 0.0592 s⁻¹

Question: And the kon (ROR1 antigen [10])?
Answer: 250000 M⁻¹ s⁻¹

Question: And the “EC50 (read off the curve)” value (ROR1 on cells [7])?
Answer: ~0.03 nM

Question: And the “EC50 (read off the curve)” value (ROR1 on cells [8])?
Answer: ~0.01 nM

B6: M16-1 (antibody, human IgG1, kappa, N297A, V domains shown)
VH: QVQLVESGGGLVKPGGSLRLSCAASGFTFSNYYMSWVRQAPGKGLEWISYISGRGSTIFYADSVKGRITISRDNAKNSLFLQMNSLRAEDTAVYFCVKDRGGYSPYWGQGTLVTVSS
VL: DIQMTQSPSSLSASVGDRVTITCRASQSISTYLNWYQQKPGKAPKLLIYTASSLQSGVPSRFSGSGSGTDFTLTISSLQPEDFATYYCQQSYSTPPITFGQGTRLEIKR
notes: also called benchmarker antibody M16-1
Question: Does B6 bind (huMUC16, AA13789-14451)?
Answer: binds

Question: And the EC50 (human MUC16 on cells [11])?
Answer: 0.192 nM

Question: And the EC50 (human MUC16 on cells [12])?
Answer: 0.192 nM

B7: M16-2 (antibody, human IgG1, kappa, N297A, V domains shown)
VH: EVQLVESGGGLEQPGRSLRLSCTASGFAFGDHTMSWVRQAPGKGLEWVGFIRSRAYGGTTEYAASVKGRFTISRDDSKSIAYLQMDSLKTEDTAVYYCTSGGYDSSLHYYYYYHGMDVWGRGTTVTVSS
VL: not shown
notes: Benchmark anti-MUC16 antibody; also called benchmarker antibody M16-2
Question: Does B7 bind (huMUC16, AA13789-14451)?
Answer: binds

Question: Does B7 bind (huMUC16, AA14198-14507)?
Answer: no binding (tested: 100 nM)

Question: What about the EC50 (human MUC16 on cells [11]) of the same binder?
Answer: 0.257 nM

Question: And the EC50 (human MUC16 on cells [13])?
Answer: 0.274 nM

Question: What about the EC50 (human MUC16 on cells [14]) of the same binder?
Answer: 0.152 nM

Question: And the EC50 (human MUC16 on cells [12])?
Answer: 0.257 nM

Question: And the EC50 [15]?
Answer: 0.423 nM
